Assay [1] deals with pIII coat protein of bacteriophage CA2000 (filamentous bacteriophage (helper phage R408 derivative)).
Assay [2] concerns the target pIII coat protein of bacteriophage CA2000 (OMP2) (filamentous bacteriophage (helper phage R408 derivative)).
The target in assay [3] is pIII coat protein of bacteriophage CA2000 (OMP1) (filamentous bacteriophage (helper phage R408 derivative)).
For assay [4], the target named is pIII coat protein of bacteriophage CA1000 (filamentous bacteriophage (helper phage R408 derivative)).
The target in assay [5] is pIII coat protein of bacteriophage CA1051 (filamentous bacteriophage (helper phage R408 derivative)).
Assay [6] deals with pIII coat protein of bacteriophage TARGETBACK (filamentous bacteriophage (helper phage R408 derivative)).
The target of assay [7] is pIII coat protein of bacteriophage CA2000 (filamentous bacteriophage (helper phage R408 derivative)). This is another data set of the same source.

For “OmpT protease (from UniProt P09169) (enzyme)”, the infective phage particles (ampicillin resistant transducing units) from OmpT mediated maturation of pIII in assay [1] is less than 50 ApR T.U./ml; in assay [2], 18000 ApR T.U./ml; in assay [3], 2500 ApR T.U./ml.

For the substance “host encoded leader peptidase (from UniProt P00803) (enzyme)”, the infective phage particles (OmR transducing units) in assay [4] was 1e+08 OmR T.U./ml; in assay [5], 30000 OmR T.U./ml; in assay [6], 1000 OmR T.U./ml; in assay [7], less than 50 OmR T.U./ml.

For the origin of these results see patent US5602021.
